From the supplement of paper PMC10065799, “High-throughput profiling of sequence recognition by tyrosine kinases and SH2 domains using bacterial peptide display” (eLife, 2023)

System: c-Src
Experiment: phosphorylation enrichment, bacterial display (enrichment ratio); higher = better substrate or ligand; peptides without Tyr show the background
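Throughout, for SH2 binding enrichment of the phosphorylated peptide, bacterial display: peptide library displayed on the E. coli surface as eCPX fusions, selected cells deep-sequenced, score is each peptide's frequency after selection divided by its frequency in the input.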
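Throughout, for phosphorylation enrichment, bacterial display: 11-residue human phosphosite peptides and single-mutation variants displayed on the E. coli surface, counted by deep sequencing, each peptide's frequency after selection divided by its frequency in the unselected input library; frequency after pTyr selection over input frequency; kinase dosed for 20-30% of maximal phosphorylation in three min.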

Sequence | phosphorylation enrichment
DQNVEYKGTVS [FHL1_Y117_W122S] | 0.444
NHQFDYTFDWT [CSNK1A1_Y294_YF] | 1.22
PADCRYFAFPQ [GAMT_Y222_YF] | 1.43
HNLPIYEGYAL [ACTA1_Y168_V165L] | 6.97
EMFNPCFGLFE [NEDD4L_Y679_Y679C_YF] | 0.725
MSRNLYSGDYY [DDR2_Y736] | 5.09
PNAFIYVVQLP [L1CAM_Y420_A415P_YF] | 0.87
KLKEKYEKDIA [HMGB1_Y155] | 0.507
IFRASYFRKGG [ALK_Y1282_YF] | 0.688
LADKPYTFEYY [FXN_Y118_D122Y] | 2.68
KHMADYPDCKY [SOX11_Y113_Y116C] | 0.368
RHLLRYLSWTV [CLCNKB_Y93_S88R] | 0.516
GKTFTYRSVFF [ZNF80_Y200] | 0.412
AVRVFYRKCPR [EPHB2_Y194] | 0.557
QTEAPYRFIYM [PTPN11_Y511_Q510P] | 1.93
FSCLPYGRLAY [SLC52A2_Y305] | 1.84
RDWSLYFKIIE [KRT18_Y129_H128L] | 0.354
WNDLDYMDSRR [GAA_Y407] | 0.646
LFEDHYLLGTS [ASS1_Y87_R86H_YF] | 1.01
TGFRPYVCPFD [YY1_Y383_D380Y_YF] | 0.458
EKHGQYLIGHG [EPHB4_Y581_D576E] | 0.396
DRLASSLDKVR [KRT10_Y160_Y160S] | 0.333
KEKLCYVAPDF [ACTA1_Y220_L223P] | 0.581
VTQEPYELYCE [CBL_Y368_Q367P] | 1.24
NLRQQYNSPQE [UMPS_Y432_G429R] | 0.316
RSAGKYDVFLI [MECP2_Y120_YF] | 0.533
TFFQMYDKGLV [IARS2_Y231_YF] | 0.537
AFLQTYAHEVS [PCDHGA5_Y753_S754A] | 0.474
AEDKPYAELWM [MPI_Y46] | 3.47

Molecular target: Grb2 SH2 (UniProt P62993)
Experiment: SH2 binding enrichment of the phosphorylated peptide, bacterial display (enrichment ratio); higher = better substrate or ligand; peptides without Tyr show the background

SH2 binding enrichment | Sequence
0.818 | PADCRYFAFPQ [GAMT_Y222_YF]
0.589 | IFRASYFRKGG [ALK_Y1282_YF]
0.611 | AVRVFYRKCPR [EPHB2_Y194]
0.84 | QTEAPYRFIYM [PTPN11_Y511_Q510P]
0.804 | FSCLPYGRLAY [SLC52A2_Y305]
0.936 | WNDLDYMDSRR [GAA_Y407]
1.22 | LFEDHYLLGTS [ASS1_Y87_R86H_YF]
0.677 | TGFRPYVCPFD [YY1_Y383_D380Y_YF]
0.792 | EKHGQYLIGHG [EPHB4_Y581_D576E]
1.01 | VTQEPYELYCE [CBL_Y368_Q367P]
0.829 | NLRQQYNSPQE [UMPS_Y432_G429R]
1.03 | RSAGKYDVFLI [MECP2_Y120_YF]
0.755 | AFLQTYAHEVS [PCDHGA5_Y753_S754A]
0.778 | AEDKPYAELWM [MPI_Y46]

Continued, sequence first:

Sequence | SH2 binding enrichment
DQNVEYKGTVS [FHL1_Y117_W122S] | 0.867
NHQFDYTFDWT [CSNK1A1_Y294_YF] | 1.02
HNLPIYEGYAL [ACTA1_Y168_V165L] | 0.835
EMFNPCFGLFE [NEDD4L_Y679_Y679C_YF] | 1.08
MSRNLYSGDYY [DDR2_Y736] | 0.878
PNAFIYVVQLP [L1CAM_Y420_A415P_YF] | 0.931
KLKEKYEKDIA [HMGB1_Y155] | 1.23
LADKPYTFEYY [FXN_Y118_D122Y] | 1.19
KHMADYPDCKY [SOX11_Y113_Y116C] | 0.863
RHLLRYLSWTV [CLCNKB_Y93_S88R] | 1.55
GKTFTYRSVFF [ZNF80_Y200] | 0.878
RDWSLYFKIIE [KRT18_Y129_H128L] | 0.567
DRLASSLDKVR [KRT10_Y160_Y160S] | 0.974
KEKLCYVAPDF [ACTA1_Y220_L223P] | 0.971
TFFQMYDKGLV [IARS2_Y231_YF] | 0.99

Molecular target: SHP2-C SH2
Experiment: as above

SH2 binding enrichment | Sequence
1.18 | PADCRYFAFPQ [GAMT_Y222_YF]
0.513 | IFRASYFRKGG [ALK_Y1282_YF]
0.529 | AVRVFYRKCPR [EPHB2_Y194]
0.783 | QTEAPYRFIYM [PTPN11_Y511_Q510P]
0.465 | FSCLPYGRLAY [SLC52A2_Y305]
0.622 | WNDLDYMDSRR [GAA_Y407]
0.634 | LFEDHYLLGTS [ASS1_Y87_R86H_YF]
0.82 | TGFRPYVCPFD [YY1_Y383_D380Y_YF]
0.664 | EKHGQYLIGHG [EPHB4_Y581_D576E]
0.861 | VTQEPYELYCE [CBL_Y368_Q367P]
0.769 | NLRQQYNSPQE [UMPS_Y432_G429R]
0.677 | RSAGKYDVFLI [MECP2_Y120_YF]
0.903 | AFLQTYAHEVS [PCDHGA5_Y753_S754A]
1.21 | AEDKPYAELWM [MPI_Y46]

The next lines start with the sequence.

Sequence | SH2 binding enrichment
DQNVEYKGTVS [FHL1_Y117_W122S] | 0.704
NHQFDYTFDWT [CSNK1A1_Y294_YF] | 0.829
HNLPIYEGYAL [ACTA1_Y168_V165L] | 0.714
EMFNPCFGLFE [NEDD4L_Y679_Y679C_YF] | 0.792
MSRNLYSGDYY [DDR2_Y736] | 0.612
PNAFIYVVQLP [L1CAM_Y420_A415P_YF] | 0.768
KLKEKYEKDIA [HMGB1_Y155] | 0.769
LADKPYTFEYY [FXN_Y118_D122Y] | 0.899
KHMADYPDCKY [SOX11_Y113_Y116C] | 1.59
RHLLRYLSWTV [CLCNKB_Y93_S88R] | 1.05
GKTFTYRSVFF [ZNF80_Y200] | 0.965
RDWSLYFKIIE [KRT18_Y129_H128L] | 0.406
DRLASSLDKVR [KRT10_Y160_Y160S] | 0.846
KEKLCYVAPDF [ACTA1_Y220_L223P] | 0.731
TFFQMYDKGLV [IARS2_Y231_YF] | 0.7

Molecular target: c-Src SH2
Experiment: as above

SH2 binding enrichment | Sequence
1.26 | PADCRYFAFPQ [GAMT_Y222_YF]
0.461 | IFRASYFRKGG [ALK_Y1282_YF]
0.417 | AVRVFYRKCPR [EPHB2_Y194]
0.469 | QTEAPYRFIYM [PTPN11_Y511_Q510P]
0.455 | FSCLPYGRLAY [SLC52A2_Y305]
0.553 | WNDLDYMDSRR [GAA_Y407]
0.534 | LFEDHYLLGTS [ASS1_Y87_R86H_YF]
0.56 | TGFRPYVCPFD [YY1_Y383_D380Y_YF]
0.381 | EKHGQYLIGHG [EPHB4_Y581_D576E]
0.695 | VTQEPYELYCE [CBL_Y368_Q367P]
0.635 | NLRQQYNSPQE [UMPS_Y432_G429R]
0.914 | RSAGKYDVFLI [MECP2_Y120_YF]
0.608 | AFLQTYAHEVS [PCDHGA5_Y753_S754A]
2.15 | AEDKPYAELWM [MPI_Y46]

Second part, the sequence before the results:

Sequence | SH2 binding enrichment
DQNVEYKGTVS [FHL1_Y117_W122S] | 0.53
NHQFDYTFDWT [CSNK1A1_Y294_YF] | 0.606
HNLPIYEGYAL [ACTA1_Y168_V165L] | 2.85
EMFNPCFGLFE [NEDD4L_Y679_Y679C_YF] | 0.716
MSRNLYSGDYY [DDR2_Y736] | 0.845
PNAFIYVVQLP [L1CAM_Y420_A415P_YF] | 0.656
KLKEKYEKDIA [HMGB1_Y155] | 0.656
LADKPYTFEYY [FXN_Y118_D122Y] | 1.28
KHMADYPDCKY [SOX11_Y113_Y116C] | 1.92
RHLLRYLSWTV [CLCNKB_Y93_S88R] | 1.02
GKTFTYRSVFF [ZNF80_Y200] | 0.575
RDWSLYFKIIE [KRT18_Y129_H128L] | 0.314
DRLASSLDKVR [KRT10_Y160_Y160S] | 0.422
KEKLCYVAPDF [ACTA1_Y220_L223P] | 0.724
TFFQMYDKGLV [IARS2_Y231_YF] | 0.526
